This note sets out measurements from patent US20050089521A1 (published 2005).

This experiment concerns the target T1, human trkC (human, UniProt Q16288 32-429, limits assumed).
T1 construct: also called htrkC; trkC receptor
In words: BIAcore analysis (SPR); format not stated. Background: In SPR one partner is held on a chip, and binding of the other changes the refractive index at the surface.

B1: humanized anti-trkC agonist antibody A5 (antibody, V domains shown)
VH: QVQLVQSGAEVKKPGASVKVSCKASGYTFTSYRIHWVRQAPGQGLEWMGEIYPSNARTNYNEKFKSRVTMTRDTSTSTVYMELSSLRSEDTAVYYCARKYYYGNTRRSWYFDVWGQGTTVTVS
VL: DIQMTQSPSSLSASVGDRVTITCRASESIDNYGISFLAWYQQKPGKAPKLLIYAASNRGSGVPSRFSGSGSGTDFTFTISSLQPEDIATYYCQQSKTVPRTFGQGTKLEIKR
notes: also called humanized monoclonal antibody A5
In general, Kd refers to a measure of binding affinity in units of concentration. The molecule B1 gave a Kd of roughly 0.28 nM.

B2: mouse anti-trkC agonist monoclonal antibody 2256 (antibody, V domains shown)
VH: QVQLQQPGAELVKPGASVKLSCKASGYTFTSYWMHWVKQRPGQGLEWIGEIYPSNGRTNYNEKFKSKATLTVDKSSSTAYMQLSSLTSEDSAVYYCARKYYYGNSYRSWYFDVWGAGTTLTVS
VL: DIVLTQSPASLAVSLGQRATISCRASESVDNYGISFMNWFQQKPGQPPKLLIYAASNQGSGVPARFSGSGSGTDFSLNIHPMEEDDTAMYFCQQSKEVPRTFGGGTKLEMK
For B2, the Kd was roughly 40 nM.
